Drawing on article PMC11969024 (2025), this text covers enrichment for 75 variants.

To fix the notation:
B1: peptide HD2 (from tick evasin EVA4) / CCL11 (biotinylated, synthetic) (parent complex)
chain 1: EEDDYTAYAPLTCYFT
chain 2: not shown

The variants in the experiment derive from B1.
chain 1 L11K: the enrichment is -0.948 log2 (difference from the parental peptide). As for chain 1 L11M, the enrichment was 2.06 log2 (difference from the parental peptide). Under chain 1 L11A stands -0.668 log2 (difference from the parental peptide). As to chain 1 L11W, the enrichment is -0.874 log2 (difference from the parental peptide).

Turning to chain 1 L11G, the enrichment is -5.15 log2 (difference from the parental peptide).

For the variant chain 1 E2N, the enrichment was -2.1 log2 (difference from the parental peptide). Under chain 1 E2Q stands -1.08 log2 (difference from the parental peptide). For chain 1 E2K, the enrichment is -3.4 log2 (difference from the parental peptide). In the case of chain 1 A7H, the enrichment is -0.338 log2 (difference from the parental peptide). Consider chain 1 A7I, for which the enrichment was -0.213 log2 (difference from the parental peptide).

On to chain 1 A7Q, for which the enrichment is 2.3 log2 (difference from the parental peptide). Consider chain 1 Y8I, for which the enrichment was -9.96 log2 (difference from the parental peptide). Under chain 1 Y8C stands -9.26 log2 (difference from the parental peptide). Consider chain 1 Y8S, for which the enrichment is -6.51 log2 (difference from the parental peptide). Under chain 1 Y14G stands -8.75 log2 (difference from the parental peptide); under chain 1 Y14A, -6.29 log2 (difference from the parental peptide).

Regarding chain 1 Y14L, the enrichment is -3.46 log2 (difference from the parental peptide).

As for chain 1 Y14I, the enrichment was -2.68 log2 (difference from the parental peptide). Under chain 1 Y14M stands -2.62 log2 (difference from the parental peptide); under chain 1 Y14Q, -4.82 log2 (difference from the parental peptide). The same measure for chain 1 T6Y: -1.69 log2 (difference from the parental peptide). Under chain 1 T6R stands -0.866 log2 (difference from the parental peptide). Take chain 1 T6V: the enrichment is -3.9 log2 (difference from the parental peptide). The same measure for chain 1 T6W: -0.511 log2 (difference from the parental peptide); for chain 1 T6S: 2.88 log2 (difference from the parental peptide). Regarding chain 1 T6G, the enrichment is 2.76 log2 (difference from the parental peptide). Regarding chain 1 T6H, the enrichment is -0.677 log2 (difference from the parental peptide). Consider chain 1 Y5E, for which the enrichment was 0.188 log2 (difference from the parental peptide).

As for chain 1 Y5L, the enrichment was -2.37 log2 (difference from the parental peptide). Under chain 1 Y5W stands 1.88 log2 (difference from the parental peptide); under chain 1 Y5P, -7.31 log2 (difference from the parental peptide); under chain 1 Y5C, -5.28 log2 (difference from the parental peptide). The same measure for chain 1 C13G: -8.69 log2 (difference from the parental peptide). Regarding chain 1 C13E, the enrichment is -8.19 log2 (difference from the parental peptide).

For chain 1 C13V, the enrichment was -5.2 log2 (difference from the parental peptide). The same measure for chain 1 C13L: -6.8 log2 (difference from the parental peptide); for chain 1 C13T: -6.48 log2 (difference from the parental peptide); for chain 1 C13I: -6.17 log2 (difference from the parental peptide). Consider chain 1 C13P, for which the enrichment is -6.72 log2 (difference from the parental peptide).

For the variant chain 1 C13N, the enrichment was -8.78 log2 (difference from the parental peptide). As to chain 1 E1L, the enrichment is -1.42 log2 (difference from the parental peptide). With chain 1 E1M, the enrichment is -0.0601 log2 (difference from the parental peptide). Under chain 1 E1Q stands -0.591 log2 (difference from the parental peptide); under chain 1 E1I, -0.709 log2 (difference from the parental peptide); under chain 1 E1N, -0.236 log2 (difference from the parental peptide). Under chain 1 T16P stands 1.77 log2 (difference from the parental peptide); under chain 1 T16E, 2.21 log2 (difference from the parental peptide). Under chain 1 T16N stands 0.695 log2 (difference from the parental peptide); under chain 1 T16V, 0.462 log2 (difference from the parental peptide); under chain 1 T16G, 1.39 log2 (difference from the parental peptide). On to chain 1 T16S, for which the enrichment was 1.18 log2 (difference from the parental peptide). The same measure for chain 1 F15I: 0.05 log2 (difference from the parental peptide); for chain 1 F15M: 0.54 log2 (difference from the parental peptide).

Consider chain 1 F15L, for which the enrichment is 0.0745 log2 (difference from the parental peptide). Under chain 1 F15E stands 0.713 log2 (difference from the parental peptide); under chain 1 F15T, 1.13 log2 (difference from the parental peptide). For the variant chain 1 D4H, the enrichment is -5.76 log2 (difference from the parental peptide). The same measure for chain 1 D4V: -4.79 log2 (difference from the parental peptide); for chain 1 T12I: -1.03 log2 (difference from the parental peptide).

Turning to chain 1 T12L, the enrichment was -0.794 log2 (difference from the parental peptide). chain 1 T12G: the enrichment was -9.29 log2 (difference from the parental peptide). The same measure for chain 1 T12V: -0.494 log2 (difference from the parental peptide); for chain 1 D3V: -3.65 log2 (difference from the parental peptide). Take chain 1 D3Y: the enrichment is -0.781 log2 (difference from the parental peptide). The same measure for chain 1 D3G: -2.94 log2 (difference from the parental peptide); for chain 1 D3E: 1.42 log2 (difference from the parental peptide); for chain 1 D3Q: -4.56 log2 (difference from the parental peptide). The same measure for chain 1 D3T: -2 log2 (difference from the parental peptide); for chain 1 D3A: -2.56 log2 (difference from the parental peptide); for chain 1 D3R: -4.57 log2 (difference from the parental peptide).

On to chain 1 P10E, for which the enrichment was -7.48 log2 (difference from the parental peptide). On to chain 1 A9I, for which the enrichment is -10.6 log2 (difference from the parental peptide). The same measure for chain 1 A9Q: -0.313 log2 (difference from the parental peptide); for chain 1 A9P: -8.38 log2 (difference from the parental peptide). For the variant chain 1 A9W, the enrichment is -5.62 log2 (difference from the parental peptide).
